This is an account of results in the supplement of paper PMC12042874.

± gives the uncertainty stated by the source.

The data set is described as follows: amyloid nucleation score (Sup35N fusion, yeast selection) (log enrichment); library NNK3; higher = more nucleation; inactive = no reads after selection. The gist of the method: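 Random libraries were run with three technical output replicates. In each, psi-negative yeast expressing Sup35N fused to peptides of 20 random codons were induced 24 hours with 100 μM copper sulfate and grown 7 days at 30°C on medium lacking adenine and uracil, and input and output plasmid inserts were Illumina-sequenced. The nucleation score is the DiMSum log enrichment of output over input reads, centred on the mode score of non-aggregating sequences, and sequences under 100 input reads were excluded.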

As to SDGNSMLGDFRVRMVCHMLL, the amyloid nucleation score entry is “inactive”.

Regarding VARNGDLF, the amyloid nucleation score result is “inactive”.

Consider LVPFSNGCQSGPLTLIWYVA, for which the amyloid nucleation score was 2.04 ± 0.068.

Regarding SRFYSDTQPTCGWKRVESRG, the amyloid nucleation score was -0.897 ± 2.5.

Take LCPRFGEEWCC: the amyloid nucleation score result was “inactive”.

In the case of HVVHYDMFHDGLSLWDQEAR, the amyloid nucleation score result was “inactive”.

Turning to KVTLRNRFISMPNFMIEP, the amyloid nucleation score result was “inactive”.

As to HTYDCAAFCPAGAGNR, the amyloid nucleation score entry was “inactive”.

As for VCVKPLCFLAHMYGKC, the amyloid nucleation score entry is “inactive”.

Take LNPTAYYVVPLVLALAWISH: the amyloid nucleation score result was “inactive”.

Take ELFKEVCEGEFRAS: the amyloid nucleation score result is “inactive”.

With TAKMSRVYCCCFSLFDVSLK, the amyloid nucleation score result was “inactive”.

Regarding YMLQVRCSVDLFVLDTMCFL, the amyloid nucleation score entry is “inactive”.

On to GRHVLGCVDITTGARSLPRM, for which the amyloid nucleation score entry was “inactive”.

On to SESPKMLVHVVSHILRDFSE, for which the amyloid nucleation score entry is “inactive”.

Turning to PNCGFVCMKMCATTDLFVCV, the amyloid nucleation score result is “inactive”.

GRVPLPCICDRWYYLEGWEV yielded an amyloid nucleation score of -0.034 ± 0.96.

FKDFIIICLAKLFGIFYDTD: the amyloid nucleation score result was “inactive”.

Consider VINRST, for which the amyloid nucleation score was 0.979 ± 0.11.

Take SWTFQHIWVRHSRSPCKAGR: the amyloid nucleation score result is “inactive”.

In the case of TMVYPKIPGGRTLAWDMTGR, the amyloid nucleation score entry was “inactive”.

For LHRSCAIAA, the amyloid nucleation score entry was “inactive”.

As to DKNSWLYSASEYIWFFNTES, the amyloid nucleation score result was “inactive”.

Substance QSLSNKVMLLSGRVNQVDVA had an amyloid nucleation score of -0.935 ± 1.5.

Consider RCCFWVMLFNYARGKRTWCH, for which the amyloid nucleation score result was “inactive”.

With RPSFLVGRFMTVLKSPRHDV, the amyloid nucleation score was -0.692 ± 1.4.

Consider PSSIKRVL, for which the amyloid nucleation score is -0.33 ± 0.8.

Turning to QPLARRIGHISV, the amyloid nucleation score entry is “inactive”.

Substance FLTDASWGSIFWKFLRASFV registered an amyloid nucleation score of 0.621 ± 0.14.

Regarding HGFFNLWWRARLHLAPLHHH, the amyloid nucleation score result is “inactive”.

Regarding GMTEGYYLESVGGSKFDNVV, the amyloid nucleation score entry is “inactive”.

YSLAELMCMKEHLPMRNGCF returned an amyloid nucleation score of 0.774 ± 0.14.

With KASVSTRFMII, the amyloid nucleation score entry is “inactive”.

With GMQALIVFSSVVMRYAFVEG, the amyloid nucleation score was -1.18 ± 1.7.

With HQPGSRLI, the amyloid nucleation score entry is “inactive”.

QFDKSNPWNSSSLMMPENGV: the amyloid nucleation score entry was “inactive”.

For VSDRCFKSTWSLMFYMGVVV, the amyloid nucleation score entry is “inactive”.

As to CNANGASAVKF, the amyloid nucleation score entry was “inactive”.

For the substance DRLRYNLWS, the amyloid nucleation score result was “inactive”.

On to QIQGAGHGM, for which the amyloid nucleation score worked out at 0.534 ± 0.21.

Regarding LCFRCASLTESIGL, the amyloid nucleation score result is “inactive”.

NVIMCLRCQY came in with an amyloid nucleation score of 2.03 ± 0.1.

For the substance IDYRMYYY, the amyloid nucleation score result is “inactive”.

On to LVLRFTSIDFKLFRRHST, for which the amyloid nucleation score entry was “inactive”.

With ILFSQETRYELSL, the amyloid nucleation score entry was “inactive”.

Take IVSMDQESTLQWNVPGYVLL: the amyloid nucleation score entry is “inactive”.

RFFHYYVSNVWTSNPFSTYI registered an amyloid nucleation score of -0.42 ± 0.62.

Substance TIKYVDRPARTGGEALAIVV came in with an amyloid nucleation score of -0.323 ± 1.

As to DVMRVWFTEYSMSTTVGMAV, the amyloid nucleation score result is “inactive”.

As for NKKSSAMYCQGIFLTFILLV, the amyloid nucleation score result was “inactive”.

QDYSELRVSKKKVVRVG: the amyloid nucleation score entry was “inactive”.

Regarding ETDVHSYFVSLYSYPFAVEP, the amyloid nucleation score entry was “inactive”.

Turning to LLLWGTHHSMIYYDGCLIFI, the amyloid nucleation score entry was “inactive”.

Regarding GVWRLSVYT, the amyloid nucleation score entry is “inactive”.

YRAIVSHNAMTPV: the amyloid nucleation score entry is “inactive”.

For the substance HAFRVSLSLVVVCCVIWDTN, the amyloid nucleation score result was “inactive”.

For AEFYERLPFDIPLHSYFNAW, the amyloid nucleation score entry is “inactive”.

Consider DLLPLVTKYFSIGLH, for which the amyloid nucleation score result was “inactive”.

As to VRCKVMSSAAATVFFVSGAV, the amyloid nucleation score result was “inactive”.

Regarding YPTWKGIFNRWAEYCIRLPV, the amyloid nucleation score is -0.266 ± 0.36.

Regarding MVSSLRALCPQHFVCSVVCM, the amyloid nucleation score is 0.885 ± 0.14.

As for MLGVMCLYQVVFIDHSYSYR, the amyloid nucleation score entry was “inactive”.

As to FTCEPARFKDYQWNNEGYCL, the amyloid nucleation score result was “inactive”.

As to VCDTM, the amyloid nucleation score entry is “inactive”.

With MSIDPHILVLVGEWLVCLKL, the amyloid nucleation score result is “inactive”.

As to SIILVYKLE, the amyloid nucleation score entry is “inactive”.

As for ASVRSGYDMVGFGILFGQMS, the amyloid nucleation score entry is “inactive”.

For the substance SLDSYDTDLKGVCCQVFCIK, the amyloid nucleation score was found to be 3.24 ± 0.062.

As to EFVEAYFSNGLSRLPLTHGM, the amyloid nucleation score result is “inactive”.

LFMRCSYCSV: the amyloid nucleation score result is “inactive”.

For TGYWI, the amyloid nucleation score entry is “inactive”.

In the case of SMASK, the amyloid nucleation score is -0.64 ± 0.82.

SLEVINVVRININNQEYIYL returned an amyloid nucleation score of 0.276 ± 0.23.

For CYIMTYKSLNTF, the amyloid nucleation score entry is “inactive”.

For FFIDYIHTYRYESSASMS, the amyloid nucleation score result was “inactive”.

As for NGCSS, the amyloid nucleation score entry is “inactive”.

NEGWPLWQWSSAVKHTFSKR displayed an amyloid nucleation score of 0.422 ± 0.31.

On to LVKNITPNAA, for which the amyloid nucleation score entry is “inactive”.

Consider YIYNSLLYI, for which the amyloid nucleation score result was “inactive”.

For the substance HSMLDFFST, the amyloid nucleation score result was “inactive”.

For the substance FTMALMLALTTGISSMSVGG, the amyloid nucleation score was 0.345 ± 0.37.

LHKALQYTKTLSESRRLCNR: the amyloid nucleation score result is “inactive”.

FQMVA: the amyloid nucleation score result is “inactive”.

Consider EGHLIHEYTQTRFVLEVSVK, for which the amyloid nucleation score entry was “inactive”.

VGTGVM: the amyloid nucleation score result was “inactive”.

Take VECSIVLCII: the amyloid nucleation score was 2.26 ± 0.051.

For the substance TGVVTMF, the amyloid nucleation score result is “inactive”.

Consider VISVGLVIKRLYSMWYLAAG, for which the amyloid nucleation score entry is “inactive”.

With RNNDVSEVKMLMKRELGFYN, the amyloid nucleation score entry was “inactive”.

Take RLNHKVFRSLCKKFLRWHGS: the amyloid nucleation score result is “inactive”.

RACHFQVIMCMICALCGFAS: the amyloid nucleation score was determined as 1.91 ± 0.079.

For the substance CVLCYRWSHMVLTPGMTGRD, the amyloid nucleation score result was “inactive”.

As for VVSLPTNILSNTIGEYMEVQ, the amyloid nucleation score entry was “inactive”.

As for NMDSVV, the amyloid nucleation score entry was “inactive”.

Take TFSASAVFTYDKGAPPLLEG: the amyloid nucleation score was 0.999 ± 0.17.

Turning to FFFLNSWVFYVLMNNDIVCA, the amyloid nucleation score result was “inactive”.

With NDSSQLLITI, the amyloid nucleation score result is “inactive”.

FNWTN: the amyloid nucleation score result is “inactive”.

In the case of WWAISTLGMGNQLFLGVPRY, the amyloid nucleation score entry was “inactive”.

Consider SSACYTVLPGKAPTPAYPLL, for which the amyloid nucleation score result is “inactive”.

Regarding SGMLKRFSALRGISASVVGV, the amyloid nucleation score result is “inactive”.

For TQLNTFYSVITSSFMIDFC, the amyloid nucleation score result was “inactive”.

As to YYPQRAGYRVPVFLWIGNWR, the amyloid nucleation score result was “inactive”.

Regarding CNILIISTTLTPKITLTFYC, the amyloid nucleation score was 1.64 ± 0.13.

As to NALCSHTILLYGEVMLKSWL, the amyloid nucleation score entry is “inactive”.

For AVSLCSDLYFVFGKWFGCEL, the amyloid nucleation score is 1.11 ± 0.11.

On to IYSRELHVCAVSIADFIWFW, for which the amyloid nucleation score entry is “inactive”.

In the case of PGYSHVRLVVSSPPLWTDLA, the amyloid nucleation score result was “inactive”.

On to NFFCASRVMGLLMIF, for which the amyloid nucleation score result was “inactive”.

For SLDKSMSGKRSLVRADSTLS, the amyloid nucleation score was -0.046 ± 0.88.

As to NLGLQDFNCNWGFTYGGLTK, the amyloid nucleation score result was “inactive”.

On to FGRQVSDGVASFMSNTSLYR, for which the amyloid nucleation score result is “inactive”.

On to GWLLRCVSTLGGLKTLLC, for which the amyloid nucleation score entry was “inactive”.

Turning to STSVVELVNLVDDLRLNLSR, the amyloid nucleation score entry was “inactive”.

Regarding GHGSFE, the amyloid nucleation score result was “inactive”.

On to WFGEYPQFWRARSYFRTSDW, for which the amyloid nucleation score entry is “inactive”.

For the substance MIGHFTYVGLWGSLATYVQV, the amyloid nucleation score result is “inactive”.

Regarding QAGLSCD, the amyloid nucleation score result is “inactive”.

For FISSSSTRILQYGRYTVEIN, the amyloid nucleation score entry is “inactive”.

In the case of QLINWFRSDDLSLTAVKRKW, the amyloid nucleation score is 0.596 ± 0.19.

As to VLTVVAKAWFPVFRPTWFLL, the amyloid nucleation score entry is “inactive”.

Take KDVSMLSTVTRTPRMRRVST: the amyloid nucleation score result was “inactive”.

Take CCRLHRGISVNPILQSYGIM: the amyloid nucleation score result is “inactive”.

Regarding SKESTNSVRCVFITVSPTRR, the amyloid nucleation score stood at 0.976 ± 0.21.

For IEQRLRLKSLSYFFINDVKI, the amyloid nucleation score entry was “inactive”.

Take KLGMSPSSLYSPAR: the amyloid nucleation score result is “inactive”.

Consider MGMLNGSSSMSDGYVYGGLW, for which the amyloid nucleation score entry is “inactive”.

Turning to FWVVISLMSSRVTVASDDHI, the amyloid nucleation score result is “inactive”.

Turning to MLDAQSASWYYFRGSLFDVR, the amyloid nucleation score entry is “inactive”.

For the substance WNLHLLICEKSHTMEVMLLR, the amyloid nucleation score result is “inactive”.

As to CYNGTLGCGYRVLIRVSGSW, the amyloid nucleation score entry is “inactive”.
